Measured values reported in article PMC4836274, “Cytokine-Like Factor 1, an Essential Facilitator of Cardiotrophin-Like Cytokine:Ciliary Neurotrophic Factor Receptor α Signaling and sorLA-Mediated Turnover” (Molecular and Cellular Biology, 2016).
One block for each binder: values may come before it.

B2: cardiotrophin-like cytokine:cytokine-like factor-1 heterodimer (complex, human)
chain 1: LNRTGDPGPGPSIQKTYDLTRYLEHQLRSLAGTYLNYLGPPFNEPDFNPPRLGAETLPRATVDLEVWRSLNDKLRLTQNYEAYSHLLCYLRGLNRQAATAELRRSLAHFCTSLQGLLGSIAGVMAALGYPLPQPLPGTEPTWTPGPAHSDFLQKMDDFWLLKELQTWLWRSAKDFNRLKKKMQPPAAAVTLHLGAHGF
chain 2: AHTAVISPQDPTLLIGSSLLATCSVHGDPPGATAEGLYWTLNGRRLPPELSRVLNASTLALALANLNGSRQRSGDNLVCHARDGSILAGSCLYVGLPPEKPVNISCWSKNMKDLTCRWTPGAHGETFLHTNYSLKYKLRWYGQDNTCEEYHTVGPHSCHIPKDLALFTPYEIWVEATNRLGSARSDVLTLDILDVVTTDPPPDVHVSRVGGLEDQLSVRWVSPPALKDFLFQAKYQIRYRVEDSVDWKVVDDVSNQTSCRLAGLKPGTVYFVQVRCNPFGIYGSKKAGIWSEWSHPTAASTPRSERPGPGGGACEPRGGEPSSGPVRRELKQFLGWLKKHAYCSNLSFRLYDQWRAWMQKSHKTRNQDEGILPSGRRGTARGPAR
notes: cardiotrophin-like cytokine (CLC), human, subunit of the bought recombinant heterodimer; cytokine-like factor-1 (CLF-1; cytokine receptor-like factor 1), human, subunit of the bought recombinant heterodimer; also called CLC:CLF-1; His-tagged CLC:CLF-1; source: bought: R&D Systems (insect cells)
B3: recombinant soluble ciliary neurotrophic factor receptor α (receptor, human, UniProt P26992 23-342, looked up)
chain: QRHSPQEAPHVQYERLGSDVTLPCGTANWDAAVTWRVNGTDLAPDLLNGSQLVLHGLELGHSGLYACFHRDSWHLRHQVLLHVGLPPREPVLSCRSNTYPKGFYCSWHLPTPTYIPNTFNVTVLHGSKIMVCEKDPALKNRCHIRYMHLFSTIKYKVSISVSNALGHNATAITFDEFTIVKPDPPENVVARPVPSNPRRLEVTWQTPSTWPDPESFPLKFFLRYRPLILDQWQHVELSDGTAHTITDAYAGKEYIIQVAAKDNEIGTWSDWSVAAHATPWTEEPRHLTTEAQAAETTTSTTSSLAPPPTTKICDPGELGS
notes: CNTF receptor α, human, soluble recombinant form; also called sCNTFRα; soluble CNTFRα; source: bought: R&D Systems

Legend:
[1] = biological target: T1, recombinant soluble ciliary neurotrophic factor receptor α (human), P26992; experiment: SPR; Biacore 3000, CM5 chip; sCNTFRα immobilised at 66 to 86 fmol/mm^2; 25°C; 10 mM HEPES, 150 mM NaCl, 1.5 mM CaCl2, 1 mM EGTA, 0.005% Tween 20, pH 7.4; Langmuir 1:1 model, global fitting; settings: remark: other sources report otherwise
T1 chain: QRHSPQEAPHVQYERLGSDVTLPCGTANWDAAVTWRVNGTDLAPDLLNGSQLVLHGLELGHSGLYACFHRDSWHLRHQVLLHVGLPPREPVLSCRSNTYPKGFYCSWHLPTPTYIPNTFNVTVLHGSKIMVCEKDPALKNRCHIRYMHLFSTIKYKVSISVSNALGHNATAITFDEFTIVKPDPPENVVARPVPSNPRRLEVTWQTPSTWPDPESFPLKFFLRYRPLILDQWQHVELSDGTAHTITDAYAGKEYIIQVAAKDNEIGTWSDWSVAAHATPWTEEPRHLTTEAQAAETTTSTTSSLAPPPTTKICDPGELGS

[2] = biological target: T2, soluble sorLA (entire luminal part of sorLA) (human, UniProt Q92673 82-2137); experiment: SPR; Biacore 3000, CM5 chip; soluble sorLA (entire luminal part) immobilised at 66 to 86 fmol/mm^2; 25°C; 10 mM HEPES, 150 mM NaCl, 1.5 mM CaCl2, 1 mM EGTA, 0.005% Tween 20, pH 7.4; Langmuir 1:1 model, global fitting; settings: both partners purified
T2 construct: sorLA, human cDNA, the entire luminal (extracellular) part; also called luminal domain of sorLA; ectodomain of sorLA

[3] = biological target: full-length sorLA in transfected HEK293 cells (human, UniProt Q92673 82-2214); experiment: cell-based or functional assay
sorLA Vps10p-D = biological target: T3, sorLA Vps10p-D (human); experiment: SPR
T3 chain: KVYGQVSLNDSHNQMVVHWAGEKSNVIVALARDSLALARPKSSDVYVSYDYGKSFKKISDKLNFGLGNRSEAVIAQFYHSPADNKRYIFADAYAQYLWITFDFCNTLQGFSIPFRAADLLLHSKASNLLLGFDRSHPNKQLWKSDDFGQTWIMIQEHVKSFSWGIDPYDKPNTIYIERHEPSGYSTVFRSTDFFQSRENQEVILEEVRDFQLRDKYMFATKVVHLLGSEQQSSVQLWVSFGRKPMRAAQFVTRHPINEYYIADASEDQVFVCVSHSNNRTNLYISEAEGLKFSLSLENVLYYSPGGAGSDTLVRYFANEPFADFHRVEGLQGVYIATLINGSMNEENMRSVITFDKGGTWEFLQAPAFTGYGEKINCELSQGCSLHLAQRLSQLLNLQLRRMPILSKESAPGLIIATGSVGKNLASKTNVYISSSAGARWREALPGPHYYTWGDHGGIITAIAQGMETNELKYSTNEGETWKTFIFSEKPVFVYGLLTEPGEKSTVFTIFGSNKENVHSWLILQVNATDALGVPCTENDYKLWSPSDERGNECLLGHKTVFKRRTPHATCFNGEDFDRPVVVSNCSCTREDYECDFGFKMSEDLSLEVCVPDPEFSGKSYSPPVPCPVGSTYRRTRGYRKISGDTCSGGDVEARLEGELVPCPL

[4] = biological target: T2, soluble sorLA (entire luminal part of …); experiment: SPR; immobilised sorLA preincubated with buffer or with 5 μM inhibitor (sorLA propeptide or RAP) before the ligand was added; settings: both partners purified
[5] = biological target: B2; experiment: SPR; Biacore 3000, CM5 chip; sCNTFRα immobilised at 66 to 86 fmol/mm^2; 25°C; 10 mM HEPES, 150 mM NaCl, 1.5 mM CaCl2, 1 mM EGTA, 0.005% Tween 20, pH 7.4; Langmuir 1:1 model, global fitting; settings: both partners purified
[6] = biological target: B3; experiment: as above; settings: both partners purified

T2 sequence (Q92673 82-2137): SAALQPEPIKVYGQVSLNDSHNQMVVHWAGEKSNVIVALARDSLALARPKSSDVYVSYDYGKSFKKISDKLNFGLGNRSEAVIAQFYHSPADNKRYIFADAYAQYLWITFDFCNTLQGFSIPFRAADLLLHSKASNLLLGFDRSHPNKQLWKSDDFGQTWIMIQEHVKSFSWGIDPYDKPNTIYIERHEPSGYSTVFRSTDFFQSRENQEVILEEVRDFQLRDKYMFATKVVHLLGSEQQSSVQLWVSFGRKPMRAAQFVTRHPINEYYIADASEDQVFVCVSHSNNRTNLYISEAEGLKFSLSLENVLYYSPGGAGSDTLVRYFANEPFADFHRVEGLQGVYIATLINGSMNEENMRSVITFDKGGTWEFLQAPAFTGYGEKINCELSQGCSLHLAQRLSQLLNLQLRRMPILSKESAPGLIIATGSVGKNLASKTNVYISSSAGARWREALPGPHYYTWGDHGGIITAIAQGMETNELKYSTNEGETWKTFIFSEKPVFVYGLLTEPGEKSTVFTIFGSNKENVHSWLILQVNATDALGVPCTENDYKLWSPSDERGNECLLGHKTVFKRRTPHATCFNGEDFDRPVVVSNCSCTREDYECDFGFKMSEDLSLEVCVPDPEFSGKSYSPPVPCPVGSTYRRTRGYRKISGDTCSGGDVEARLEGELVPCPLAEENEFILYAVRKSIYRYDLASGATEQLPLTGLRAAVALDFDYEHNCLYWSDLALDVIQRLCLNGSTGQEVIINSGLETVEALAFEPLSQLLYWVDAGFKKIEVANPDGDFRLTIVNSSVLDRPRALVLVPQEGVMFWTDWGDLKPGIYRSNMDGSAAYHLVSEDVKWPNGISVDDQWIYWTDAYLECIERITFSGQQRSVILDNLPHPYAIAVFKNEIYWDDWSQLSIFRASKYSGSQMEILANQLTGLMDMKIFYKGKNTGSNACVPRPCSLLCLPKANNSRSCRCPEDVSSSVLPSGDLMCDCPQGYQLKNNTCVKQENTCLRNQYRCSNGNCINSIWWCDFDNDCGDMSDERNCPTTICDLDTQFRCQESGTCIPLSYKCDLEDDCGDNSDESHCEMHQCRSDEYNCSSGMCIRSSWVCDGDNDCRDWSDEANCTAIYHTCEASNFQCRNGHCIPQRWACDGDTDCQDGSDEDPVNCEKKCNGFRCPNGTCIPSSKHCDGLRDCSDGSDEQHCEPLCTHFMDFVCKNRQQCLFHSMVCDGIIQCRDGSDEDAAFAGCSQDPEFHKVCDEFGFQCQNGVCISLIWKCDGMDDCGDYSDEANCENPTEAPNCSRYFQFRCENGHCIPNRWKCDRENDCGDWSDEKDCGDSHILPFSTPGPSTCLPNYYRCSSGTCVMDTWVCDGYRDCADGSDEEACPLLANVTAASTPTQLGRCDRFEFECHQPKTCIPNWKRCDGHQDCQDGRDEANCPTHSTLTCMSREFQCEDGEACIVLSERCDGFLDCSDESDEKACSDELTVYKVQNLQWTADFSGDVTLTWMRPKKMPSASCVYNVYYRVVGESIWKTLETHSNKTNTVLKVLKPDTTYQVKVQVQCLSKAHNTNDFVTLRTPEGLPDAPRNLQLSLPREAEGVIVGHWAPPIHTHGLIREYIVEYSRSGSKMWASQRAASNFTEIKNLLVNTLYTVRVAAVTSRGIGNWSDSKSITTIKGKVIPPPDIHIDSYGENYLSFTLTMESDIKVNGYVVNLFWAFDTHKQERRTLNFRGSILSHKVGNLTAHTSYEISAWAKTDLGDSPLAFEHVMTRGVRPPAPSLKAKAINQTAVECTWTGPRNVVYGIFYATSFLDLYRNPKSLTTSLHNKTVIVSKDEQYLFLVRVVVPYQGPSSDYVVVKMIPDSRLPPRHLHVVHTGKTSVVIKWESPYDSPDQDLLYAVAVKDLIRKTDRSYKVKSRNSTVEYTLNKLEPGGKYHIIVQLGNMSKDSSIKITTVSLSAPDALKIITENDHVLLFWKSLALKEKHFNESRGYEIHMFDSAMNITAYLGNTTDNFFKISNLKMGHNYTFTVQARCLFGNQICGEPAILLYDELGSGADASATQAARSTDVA
full-length sorLA in transfected HEK293 cells, sequence (Q92673 82-2214): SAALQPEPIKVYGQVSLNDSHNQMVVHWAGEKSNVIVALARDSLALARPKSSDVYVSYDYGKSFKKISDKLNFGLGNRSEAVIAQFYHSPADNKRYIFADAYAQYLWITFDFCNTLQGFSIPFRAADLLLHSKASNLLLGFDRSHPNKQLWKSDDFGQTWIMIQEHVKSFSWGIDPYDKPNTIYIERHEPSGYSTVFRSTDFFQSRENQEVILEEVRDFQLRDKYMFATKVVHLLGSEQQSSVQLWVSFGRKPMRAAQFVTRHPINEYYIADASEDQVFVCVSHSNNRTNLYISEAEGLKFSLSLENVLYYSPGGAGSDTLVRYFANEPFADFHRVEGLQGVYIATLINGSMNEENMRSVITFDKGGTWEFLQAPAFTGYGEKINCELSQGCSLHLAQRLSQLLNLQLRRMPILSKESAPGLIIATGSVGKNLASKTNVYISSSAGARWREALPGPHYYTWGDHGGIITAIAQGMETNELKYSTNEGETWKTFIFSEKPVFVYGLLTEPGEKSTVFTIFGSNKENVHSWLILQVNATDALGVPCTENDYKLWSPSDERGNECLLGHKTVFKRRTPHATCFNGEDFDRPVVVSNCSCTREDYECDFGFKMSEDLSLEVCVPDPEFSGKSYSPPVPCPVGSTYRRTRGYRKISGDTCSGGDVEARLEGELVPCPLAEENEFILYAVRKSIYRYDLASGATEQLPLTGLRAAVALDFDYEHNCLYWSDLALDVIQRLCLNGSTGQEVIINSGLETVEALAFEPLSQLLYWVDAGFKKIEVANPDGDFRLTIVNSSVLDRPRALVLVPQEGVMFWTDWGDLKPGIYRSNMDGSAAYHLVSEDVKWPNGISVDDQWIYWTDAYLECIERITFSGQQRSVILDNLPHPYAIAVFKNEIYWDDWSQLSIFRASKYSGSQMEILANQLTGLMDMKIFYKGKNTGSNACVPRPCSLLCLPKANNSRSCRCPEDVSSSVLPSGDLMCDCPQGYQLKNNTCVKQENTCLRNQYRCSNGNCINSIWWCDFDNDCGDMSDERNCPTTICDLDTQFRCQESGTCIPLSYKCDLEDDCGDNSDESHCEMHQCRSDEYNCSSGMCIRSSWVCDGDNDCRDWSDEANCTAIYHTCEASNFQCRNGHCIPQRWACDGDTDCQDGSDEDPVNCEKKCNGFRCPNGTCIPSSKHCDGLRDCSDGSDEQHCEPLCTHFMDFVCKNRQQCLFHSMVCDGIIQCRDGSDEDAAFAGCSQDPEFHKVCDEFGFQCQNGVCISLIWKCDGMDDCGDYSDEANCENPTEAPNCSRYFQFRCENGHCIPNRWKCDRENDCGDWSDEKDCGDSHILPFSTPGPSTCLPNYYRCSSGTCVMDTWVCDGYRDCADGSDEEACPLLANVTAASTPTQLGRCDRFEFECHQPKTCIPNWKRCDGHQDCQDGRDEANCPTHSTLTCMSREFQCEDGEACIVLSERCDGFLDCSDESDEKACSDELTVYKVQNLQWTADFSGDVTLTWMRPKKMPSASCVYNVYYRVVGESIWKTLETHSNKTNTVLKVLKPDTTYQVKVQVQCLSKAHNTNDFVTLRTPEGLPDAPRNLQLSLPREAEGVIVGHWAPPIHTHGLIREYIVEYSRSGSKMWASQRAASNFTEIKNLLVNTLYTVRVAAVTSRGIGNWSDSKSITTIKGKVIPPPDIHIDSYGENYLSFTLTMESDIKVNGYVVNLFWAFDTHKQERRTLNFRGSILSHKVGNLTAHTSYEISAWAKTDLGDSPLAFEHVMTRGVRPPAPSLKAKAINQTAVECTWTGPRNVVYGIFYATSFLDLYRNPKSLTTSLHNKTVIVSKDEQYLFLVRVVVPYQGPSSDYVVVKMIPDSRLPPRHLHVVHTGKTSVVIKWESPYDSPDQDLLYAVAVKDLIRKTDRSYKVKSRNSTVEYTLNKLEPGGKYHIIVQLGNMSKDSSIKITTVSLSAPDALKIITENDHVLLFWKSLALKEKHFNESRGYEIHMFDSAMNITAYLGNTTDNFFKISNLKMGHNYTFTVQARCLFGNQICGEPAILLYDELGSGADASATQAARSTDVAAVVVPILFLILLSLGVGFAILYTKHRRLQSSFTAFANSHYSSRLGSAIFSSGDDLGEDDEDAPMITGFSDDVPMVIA

Binder: B2
pSTAT3 in CNTFRα-deficient Ba/F3 cells (gp130/LIFRβ) stimulated with CLC:CLF-1 and sCNTFRα, sorLA transfectants against untransfected cells [3]: ~4 fold | Kd [2]: 5 nM

Binder: B3
Kd (sorLA Vps10p-D): ~14 nM | binding result [4]: binds | Kd [5]: 0.3 nM

Other lines, results leading:

Kd [1]: 4 nM | Kd [2]: 4 nM
B1: CLF-1–His (His-tagged cytokine-like factor-1) (natural protein, human, UniProt O75462 38-422, looked up)
chain: AHTAVISPQDPTLLIGSSLLATCSVHGDPPGATAEGLYWTLNGRRLPPELSRVLNASTLALALANLNGSRQRSGDNLVCHARDGSILAGSCLYVGLPPEKPVNISCWSKNMKDLTCRWTPGAHGETFLHTNYSLKYKLRWYGQDNTCEEYHTVGPHSCHIPKDLALFTPYEIWVEATNRLGSARSDVLTLDILDVVTTDPPPDVHVSRVGGLEDQLSVRWVSPPALKDFLFQAKYQIRYRVEDSVDWKVVDDVSNQTSCRLAGLKPGTVYFVQVRCNPFGIYGSKKAGIWSEWSHPTAASTPRSERPGPGGGACEPRGGEPSSGPVRRELKQFLGWLKKHAYCSNLSFRLYDQWRAWMQKSHKTRNQDEGILPSGRRGTARGPAR
notes: signal peptide in the construct; human CLF-1 coding cDNA (ImaGenes) amplified from the start codon to the C terminus, secreted into the medium; The second codon of the forward primer reads GCC (Ala); this lies in the signal peptide; The introduction gives 385 amino acids for human CLF-1; also called His-tagged CLF-1; source: HEK293 cells transfected, purified from serum-free medium (Talon resin) …

Kd [6]: 66 nM
B4: cardiotrophin-like cytokine (ligand, human, UniProt Q9UBD9 28-225, looked up)
chain: LNRTGDPGPGPSIQKTYDLTRYLEHQLRSLAGTYLNYLGPPFNEPDFNPPRLGAETLPRATVDLEVWRSLNDKLRLTQNYEAYSHLLCYLRGLNRQAATAELRRSLAHFCTSLQGLLGSIAGVMAALGYPLPQPLPGTEPTWTPGPAHSDFLQKMDDFWLLKELQTWLWRSAKDFNRLKKKMQPPAAAVTLHLGAHGF
notes: cardiotrophin-like cytokine (CLC), human recombinant; also called CLC; source: bought: R&D Systems (bacteria)
